The star is where a group is joined. Biotin = O=C1N[C@H]2[C@H](CS[C@H]2CCCCC(=O)*)N1

For this test, the target named is T1, mature myostatin (UniProt O08689 268-376, limits assumed).
T1 construct: mature; also called MSTN
T1 sequence (looked up): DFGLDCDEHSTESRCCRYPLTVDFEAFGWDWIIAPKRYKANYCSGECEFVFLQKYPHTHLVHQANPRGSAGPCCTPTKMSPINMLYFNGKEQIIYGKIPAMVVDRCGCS
As to the kind of experiment: ELISA, biotinylated peptide on coated myostatin, with or without zinc. As to the method:
For this, 3 μl of myostatin at a concentration of 100 ng/μl are taken up in 50 μl of carbonate buffer and added to each well of the assay plate (R&D Systems DY990). After an overnight incubation at 4° C., the plate is washed with 100 μl of PBS-Tween (0.05% Tween 20), then the blocking step to saturate non-specific sites is carried out for 2 hours at room temperature with 100 μl of PBS and 6% of milk per well. Five successive washes with 200 μl of PBS-Tween (0.05% Tween 20) are performed and increasing amounts of biotinylated fibromodulin peptides are then deposited (100 μl final in PBS) and the plate is incubated for 1 hour at 37° C. For the positive control, an antibody of goat anti-myostatin (≠AF788, R&D Systems), which was deposited in the control wells and incubated for 1 hour at 1/100th (0.1 mg/ml) was […]. The wells were then washed 5 times with PBS-Tween (0.05% Tween 20). […] After five washes, adding the peroxidase substrate, the TMB Substrate Reagent Set (Tetramehylbenzidine, OptEIA, ≠555214) allows the obtention of a colored reaction proportional to the quantity of HRP present in the wells. The reaction is stopped after 20 minutes by addition of sulfuric acid 2N, and the plate is read at 450 nm on a Discovery HT-R spectrophotometer (Bio-TEK).
(In general: In an ELISA, binding on a coated surface is turned into a signal by an enzyme label.)

B1: Peptide Biotine-69-101 mFibromoduline mutated (Fmod mutated) (peptide)
peptide: Biotin-PPPEPRDCPQEADAPPNFPTAMYADNRNLKYLP-NH2
SMILES: CSCC[C@H](NC(=O)[C@H](C)NC(=O)[C@@H](NC(=O)[C@@H]1CCCN1C(=O)[C@H](Cc1ccccc1)NC(=O)[C@H](CC(N)=O)NC(=O)[C@@H]1CCCN1C(=O)[C@@H]1CCCN1C(=O)[C@H](C)NC(=O)[C@H](CC(=O)O)NC(=O)[C@H](C)NC(=O)[C@H](CCC(=O)O)NC(=O)[C@H](CCC(N)=O)NC(=O)[C@@H]1CCCN1C(=O)[C@H](CS)NC(=O)[C@H](CC(=O)O)NC(=O)[C@H](CCCNC(=N)N)NC(=O)[C@@H]1CCCN1C(=O)[C@H](CCC(=O)O)NC(=O)[C@@H]1CCCN1C(=O)[C@@H]1CCCN1C(=O)[C@@H]1CCCN1C(=O)CCCC[C@@H]1SC[C@@H]2NC(=O)N[C@@H]21)[C@@H](C)O)C(=O)N[C@@H](Cc1ccc(O)cc1)C(=O)N[C@@H](C)C(=O)N[C@@H](CC(=O)O)C(=O)N[C@@H](CC(N)=O)C(=O)N[C@@H](CCCNC(=N)N)C(=O)N[C@@H](CC(N)=O)C(=O)N[C@@H](CC(C)C)C(=O)N[C@@H](CCCCN)C(=O)N[C@@H](Cc1ccc(O)cc1)C(=O)N[C@@H](CC(C)C)C(=O)N1CCC[C@H]1C(N)=O
notes: also called mutated biotin mFmod peptide
With B1, the binding result was “no binding”.
